# Experimental data published in patent US6403764.
# T1: human IGFBP-1 (human, UniProt P08833 26-259)
# T1 construct: mature; Secreted recombinant protein; also called IGFBP-I
# T1 sequence (looked up): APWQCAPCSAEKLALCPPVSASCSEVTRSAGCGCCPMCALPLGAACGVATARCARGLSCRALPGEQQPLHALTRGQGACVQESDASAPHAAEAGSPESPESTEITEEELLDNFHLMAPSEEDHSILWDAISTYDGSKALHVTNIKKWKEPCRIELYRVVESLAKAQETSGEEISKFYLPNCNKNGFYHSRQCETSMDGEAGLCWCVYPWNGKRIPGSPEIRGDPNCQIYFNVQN
# How the values were obtained:
# human IGFBP-1 = target: T1, human IGFBP-1; test: competitive phage ELISA
# Protocol: (§1) Phage particles were harvested and resuspended in PBS buffer as described in Lowman, H. B., "Phage Display of Peptide Libraries on Protein Scaffolds," in Cabilly, S. (ed.), *Combinatorial Peptide Library Protocols* (Humana Press Inc.: Totowa, N.J., 1998), pp. 249–264. Then phage concentrations were normalized to yield a maximal ELISA signal of 0.2–0.4 for each mutant (Lowman, in Cabilly, S. (ed.), supra). Threefold serial dilutions of soluble competitor were prepared on non-absorbent microtiter plates (Nunc, F, 96 wells) with binding buffer (0.5% TWEEN™ 20/PBS) containing phage at the previously-determined concentrations. The dilution range of competitor protein extended over six orders of magnitude, starting at 5 µM for IGFBP-1 and 500 nM for IGFBP-3. After blocking, the plates containing immobilized target were washed with 0.05% TWEEN™/PBS buffer and subsequently incubated with 80 µl/well of the premixed phage-competitor solutions for 1 hour at room temperature. […] Numbers in Table I represent mean±standard deviation of individually assessed $IC50$ values.
# (§2) At least two different clones of every mutant were tested.
# [1] = target: T2, recombinant human IGFBP-3 (human, UniProt P17936 28-291); test: competitive phage ELISA
# T2 construct: mature; Secreted recombinant protein
# T2 sequence (P17936 28-291): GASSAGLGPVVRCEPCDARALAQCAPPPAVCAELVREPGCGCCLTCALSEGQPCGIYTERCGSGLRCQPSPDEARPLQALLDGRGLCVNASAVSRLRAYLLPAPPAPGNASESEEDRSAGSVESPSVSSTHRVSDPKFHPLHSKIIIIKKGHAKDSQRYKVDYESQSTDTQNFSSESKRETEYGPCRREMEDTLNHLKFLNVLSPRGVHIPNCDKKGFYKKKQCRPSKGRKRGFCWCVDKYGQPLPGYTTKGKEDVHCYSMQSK
# Protocol: as §1, §2
Binder,IC50 (human IGFBP-1),IC50 [1]
"IGF-I D12A displayed on phage (ligand, On phage; G1S-A70V template; not shown: M13 gene III fragment (residues 249-406), the display carrier, and its junction) SPETLCGAELVAALQFVCGDRGFYFNKPTGYGSSSRRAPQTGIVDECCFRSCDLRRLEMYCAPLKPAKSV",4.3 nM,1.49 nM
"IGF-I L5A displayed on phage (ligand, not shown: large carriers; small tags and cut ends, On phage; G1S-A70V template) SPETACGAELVDALQFVCGDRGFYFNKPTGYGSSSRRAPQTGIVDECCFRSCDLRRLEMYCAPLKPAKSV",55.3 nM,1.53 nM
"IGF-I L57A displayed on phage (ligand, On phage; G1S-A70V template; not shown: M13 gene III protein fragment (residues 249-406), the phage display carrier, and its junction to IGF-I) SPETLCGAELVDALQFVCGDRGFYFNKPTGYGSSSRRAPQTGIVDECCFRSCDLRRAEMYCAPLKPAKSV",21.8 nM,1.78 nM
"IGF-I G22A displayed on phage (ligand, On phage; G1S-A70V template; not shown: Display carrier: M13 gene III protein fragment (residues 249-406) and the junction to it) SPETLCGAELVDALQFVCGDRAFYFNKPTGYGSSSRRAPQTGIVDECCFRSCDLRRLEMYCAPLKPAKSV",15.9 nM,2.07 nM
"IGF-I Q40A displayed on phage (ligand, not shown: large carriers, On phage; G1S-A70V template) SPETLCGAELVDALQFVCGDRGFYFNKPTGYGSSSRRAPATGIVDECCFRSCDLRRLEMYCAPLKPAKSV",10.2 nM,0.56 nM
"IGF-I R55A displayed on phage (ligand, On phage; G1S-A70V template; not shown: Display partner: M13 gene III protein fragment (residues 249-406, mature count) and the junction to it) SPETLCGAELVDALQFVCGDRGFYFNKPTGYGSSSRRAPQTGIVDECCFRSCDLARLEMYCAPLKPAKSV",9 nM,0.66 nM
"IGF-I K65A displayed on phage (ligand, On phage; G1S-A70V template; not shown: M13 gene III protein fragment (residues 249-406), the phage display carrier, and its junction to IGF-I) SPETLCGAELVDALQFVCGDRGFYFNKPTGYGSSSRRAPQTGIVDECCFRSCDLRRLEMYCAPLAPAKSV",12.4 nM,0.69 nM
"IGF-I G19A displayed on phage (ligand, On phage; G1S-A70V template; not shown: M13 gene III fragment (residues 249-406), the display carrier, and its junction) SPETLCGAELVDALQFVCADRGFYFNKPTGYGSSSRRAPQTGIVDECCFRSCDLRRLEMYCAPLKPAKSV",11 nM,0.9 nM
"IGF-I D53A displayed on phage (ligand, On phage; G1S-A70V template; not shown: Display partner: M13 gene III protein fragment (residues 249-406, mature count) and the junction to it) SPETLCGAELVDALQFVCGDRGFYFNKPTGYGSSSRRAPQTGIVDECCFRSCALRRLEMYCAPLKPAKSV",15.3 nM,1.05 nM
"IGF-I P66A displayed on phage (ligand, On phage; G1S-A70V template; not shown: M13 gene III protein fragment (residues 249-406), the phage display carrier, and its junction to IGF-I) SPETLCGAELVDALQFVCGDRGFYFNKPTGYGSSSRRAPQTGIVDECCFRSCDLRRLEMYCAPLKAAKSV",9.4 nM,0.57 nM
"IGF-I R37A displayed on phage (ligand, not shown: large carriers, On phage; G1S-A70V template) SPETLCGAELVDALQFVCGDRGFYFNKPTGYGSSSRAAPQTGIVDECCFRSCDLRRLEMYCAPLKPAKSV",12.3 nM,0.75 nM
"IGF-I M59A displayed on phage (ligand, On phage; G1S-A70V template; not shown: M13 gene III protein fragment (residues 249-406), the phage display carrier, and its junction to IGF-I) SPETLCGAELVDALQFVCGDRGFYFNKPTGYGSSSRRAPQTGIVDECCFRSCDLRRLEAYCAPLKPAKSV",13.1 nM,0.74 nM
"IGF-I R21A displayed on phage (ligand, On phage; G1S-A70V template; not shown: Display carrier: M13 gene III protein fragment (residues 249-406) and the junction to it) SPETLCGAELVDALQFVCGDAGFYFNKPTGYGSSSRRAPQTGIVDECCFRSCDLRRLEMYCAPLKPAKSV",7.1 nM,0.58 nM
"IGF-I K27A displayed on phage (ligand, On phage; G1S-A70V template; not shown: Display carrier: M13 gene III protein fragment (residues 249-406) and the junction to it) SPETLCGAELVDALQFVCGDRGFYFNAPTGYGSSSRRAPQTGIVDECCFRSCDLRRLEMYCAPLKPAKSV",12.8 nM,0.66 nM
"IGF-I E9A displayed on phage (ligand, On phage; G1S-A70V template; not shown: M13 gene III fragment (residues 249-406), the display carrier, and its junction) SPETLCGAALVDALQFVCGDRGFYFNKPTGYGSSSRRAPQTGIVDECCFRSCDLRRLEMYCAPLKPAKSV",8.6 nM,1.32 nM
